Assay results taken from patent US20240052034A1.

Target: PD-1 on PD-1 reporter Jurkat cells (UniProt Q15116)
Assay: cell-based or functional assay

PD-1 on PD-1 reporter Jurkat cells, sequence (Q15116 25-288 limits assumed): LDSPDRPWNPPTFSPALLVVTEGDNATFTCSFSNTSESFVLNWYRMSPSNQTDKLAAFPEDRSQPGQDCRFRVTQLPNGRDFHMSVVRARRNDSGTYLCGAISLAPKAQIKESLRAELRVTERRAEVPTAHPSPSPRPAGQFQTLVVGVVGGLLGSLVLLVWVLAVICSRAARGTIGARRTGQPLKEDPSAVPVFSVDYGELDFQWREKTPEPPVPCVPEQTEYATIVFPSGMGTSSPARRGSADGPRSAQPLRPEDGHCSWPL

EC50 of SHP-2 recruitment, PD-1 reporter Jurkat cells, Ig-tethered test article on anti-human IgG coated plates: 5.69 nM
Substance: LY3462817 (antibody)
